This note sets out measurements from patent US20200308591A1, “PROMOTER REGION ANALYSIS METHODS AND CELLS FOR PRACTICING SAME” (Eurofins DiscoverX Corporation, priority 2019, published 2020).

Experiment [1] deals with human T-cell receptor CD3 subunit on Jurkat cells (human) (UniProt P07766). Kind of experiment: cell-based or functional assay.
Experiment [2] deals with endogenous IL-6 receptor in HepG2 cells (UniProt P08887). Kind of experiment: cell-based or functional assay.
A further experiment concerns the target T1, IL-6 receptor (Homo sapiens, UniProt P08887).
T1 construct: uses endogenous IL-6 receptor in HepG2 cells to detect IL-6 signaling; endogenous in cells; host or cells: HepG2
T1 sequence (P08887 20-468): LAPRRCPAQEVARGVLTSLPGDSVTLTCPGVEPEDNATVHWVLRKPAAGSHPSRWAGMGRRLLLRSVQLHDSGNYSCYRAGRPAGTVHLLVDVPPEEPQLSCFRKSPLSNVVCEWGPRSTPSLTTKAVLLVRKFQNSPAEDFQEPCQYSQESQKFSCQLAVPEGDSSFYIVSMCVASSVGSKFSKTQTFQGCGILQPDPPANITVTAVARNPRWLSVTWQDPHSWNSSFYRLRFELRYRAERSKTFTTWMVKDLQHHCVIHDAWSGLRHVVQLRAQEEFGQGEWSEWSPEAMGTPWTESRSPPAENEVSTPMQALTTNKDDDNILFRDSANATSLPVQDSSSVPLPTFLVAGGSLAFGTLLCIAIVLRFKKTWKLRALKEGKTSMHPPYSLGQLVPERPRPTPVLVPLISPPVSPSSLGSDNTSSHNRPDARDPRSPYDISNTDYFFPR
T1 sequence (P40189 23-918 partner): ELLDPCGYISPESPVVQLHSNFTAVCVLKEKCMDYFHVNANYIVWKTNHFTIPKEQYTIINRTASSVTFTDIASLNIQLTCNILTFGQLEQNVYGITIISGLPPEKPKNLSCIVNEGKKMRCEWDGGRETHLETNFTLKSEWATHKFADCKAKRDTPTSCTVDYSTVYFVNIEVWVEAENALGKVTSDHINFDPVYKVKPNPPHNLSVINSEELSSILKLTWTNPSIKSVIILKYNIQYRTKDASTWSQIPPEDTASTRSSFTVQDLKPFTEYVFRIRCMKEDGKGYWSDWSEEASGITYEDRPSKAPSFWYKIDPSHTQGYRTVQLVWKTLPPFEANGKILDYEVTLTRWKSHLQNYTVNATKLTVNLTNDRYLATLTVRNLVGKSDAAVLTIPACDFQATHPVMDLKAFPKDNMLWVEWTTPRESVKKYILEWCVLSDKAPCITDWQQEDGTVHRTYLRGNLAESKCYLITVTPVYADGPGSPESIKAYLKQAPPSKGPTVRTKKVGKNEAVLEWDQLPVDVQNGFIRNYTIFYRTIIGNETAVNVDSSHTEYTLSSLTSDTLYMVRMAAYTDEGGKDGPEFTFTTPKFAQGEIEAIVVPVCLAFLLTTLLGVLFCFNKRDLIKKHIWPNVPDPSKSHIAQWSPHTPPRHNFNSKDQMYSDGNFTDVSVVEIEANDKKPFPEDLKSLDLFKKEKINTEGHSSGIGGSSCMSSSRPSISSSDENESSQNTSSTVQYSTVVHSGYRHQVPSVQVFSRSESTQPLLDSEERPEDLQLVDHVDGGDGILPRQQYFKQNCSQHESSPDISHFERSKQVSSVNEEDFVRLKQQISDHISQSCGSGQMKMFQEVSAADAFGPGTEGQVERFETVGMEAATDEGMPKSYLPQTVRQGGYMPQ
Kind of experiment: HepG2 STAT3 pathway reporter cell line (Example 9). In kind it is cell-based. The settings on record: 5000 cells/well; 16 h at 37 °C. From the text:
A reporter cell line was engineered to express an Enzyme Donor (ED) tagged carrier protein controlled by a pathway-inducible transcriptional response element. Pathway activation results in induced expressions of the ED-tagged protein. Addition of exogenous Enzyme Acceptor (EA), and buffer, lyses the cell and forces complementation of the ED and EA enzyme fragments.
In this example, the cell line is a STAT3 (signal transducer and activator of transcription 3) pathway reporter cell line. The cells are HepG2 cells that include a nucleic acid encoding a β-galactosidase donor fragment (ED) having the amino acid sequence […] (SEQ ID NO:30) operably coupled to a promoter region comprising a STAT3 response element.
Cells were plated in a 96-well plate and incubated at 37° C. and 5% CO2 to allow the cells to attach and grow. Cells were then stimulated with a control agonist (here, IL-6), using the assay conditions described below. Following stimulation, signal was detected using the PathHunter® ProLabel®/ProLink™ Detection Kit (Eurofins DiscoverX Corporation) according to the recommended protocol.
Cell line for HepG2 STAT3 assay uses endogenous IL-6 receptor in HepG2 cells to detect IL-6 signaling.

A further experiment concerns IL2 promoter. The experiment can be described thus: Jurkat IL2-promoter EFC reporter assay. The format is cell-based. The settings on record: 5K cells, stimulated 16h; ionomycin via NFAT, PMA via AP-1 response elements. The source says: FIG. 9. Plasmid map for IL2-Promoter-EFC Reporter Plasmid. In this reporter construct, the complete endogenous IL2 gene promoter (“IL2prom”), which contains multiple specific transcription factor binding sites is fused upstream of and drives expression of carrier protein-ePL which is fused to a carrier protein. Contained within the IL2 promoter are binding sites for NFAT (1), NFkB (2), OCT (3), ARRE-2 (4) and NFAT/API (6) transcription factors and the IL2 minimal promoter (7). The DNA sequence of the IL2 promoter used is gtac[…]gctag (SEQ ID NO: 11) and is comprised of 8 different transcription factor binding sites and an IL-2 core promoter as described by Weaver et. al. (Molecular Immunology, 6 Mar. 2007, 44(11):2813-2819). The following 8 DNA elements […] (SEQ ID NO: 12), […] (SEQ ID NO:13), […] (SEQ ID NO:14), […] (SEQ ID NO:15), […] (SEQ ID NO:16), […] […]
FIG. 10. […] 5K Jurkat IL2 promoter reporter cells were plated in wells of 384 well plate and stimulated for 16h with either […] (squares) or […]+CD28 antibody (circles) at 37′C prior to adding FLASH detection reagent (+5×EA) with cell lysis (and reading EFC luminescence). […]
FIG. 11. […] 5K cells were plated in wells of 384 well plate and stimulated for 16h prior to adding FLASH detection reagent (+5×EA) with cell lysis (and reading luminescence). S/B is calculated by taking the RLU (with PMA/ionomycin)/RLU (without PMA/ionomycin).
(In a reporter assay the amount or activity of a reporter protein is the signal.)

In a further experiment the test system is NFAT signaling pathways. The experiment can be described thus: U2OS NFAT EFC reporter assay, PMA/ionomycin stimulation. The format is cell-based. The note with it: 5,000 cells, stimulated 20h, components given together as cocktail, read-out: potency of the cocktail expressed as component concentration. The method, then: NFAT EFC Reporter construct includes a promoter with 4 tandemly repeated (4×) NFAT transcription factor binding response elements, each having the sequence: […] (SEQ ID NO:5).
Cells were stimulated for 20h followed by detection by PathHunter® FLASH detection reagent (+Enzyme Acceptor (EA)) with cell lysis for 1h. 5K and 10K refers to the number of cells plated in each well of a 384 well plate. S/B is signal (top) over background (bottom) of the assay response curve.
A “cell stimulation” cocktail of phorbol 12-myristate 13-acetate (PMA) and ionomycin is known to activate “NFAT signaling pathways” and the NFAT transcription factor. […] Inhibition could be detected as decreases in relative light units (RLUs) with test compounds in the presence of stimulating doses of cell stimulation cocktail or other activating ligands.

Experiment [3] concerns the target CD40 receptor, endogenous in U2OS NFκB EFC reporter cells (UniProt P25942). Kind of experiment: cell-based or functional assay.
In a further experiment the target is TNFα (Homo sapiens, UniProt P01375). Kind of experiment: U2OS NFkB EFC reporter assay, inhibition of TNFα-stimulated NF-κB signaling. The format is cell-based. The method, then: FIG. 5. Screening of inhibitors using U2OS NFkB EFC reporter cell-based assay. U2OS NFkB EFC reporter cells were treated with 2 nM TNFα (agonist) with or without various concentrations (and 3 lots) of anti-TNFα inhibitor adalimumab. In this example, the 3 lots of Humira tested were all derived from lot #1047318 run through a forced degradation protocol to simulate decreased specific activity or loss of activity where samples were non-stressed (e.g. the control), stressed 70° C. for 15 min and stressed 70° C. for 30 min.
U2OS NF-κB EFC Reporter cells can also be used to measure inhibition and study inhibitors of NF-κB signaling. […] The dose-dependence of this inhibitory response allowed measurement of the potency of different lots of adalimumab. […] Note that forced degradation is a method used in development of assay for biologics (protein therapeutics) to simulate lots with different potency, e.g. for QC/lot release assays, or loss of potency from various causes. […] The stability of Humira® over time can also be studied using this assay. It can be seen that two lots of Humira® stored at 4° C.
FIG. 6. […] The stability of expired lot #1017235 was also equivalent to that of lot #1047318 in the forced degradation experiment shown in FIG. 5.

Like-named read-outs stand apart in the source and are kept apart here.

CD40 receptor, endogenous in U2OS NFκB EFC reporter cells, sequence (P25942 21-277 limits assumed): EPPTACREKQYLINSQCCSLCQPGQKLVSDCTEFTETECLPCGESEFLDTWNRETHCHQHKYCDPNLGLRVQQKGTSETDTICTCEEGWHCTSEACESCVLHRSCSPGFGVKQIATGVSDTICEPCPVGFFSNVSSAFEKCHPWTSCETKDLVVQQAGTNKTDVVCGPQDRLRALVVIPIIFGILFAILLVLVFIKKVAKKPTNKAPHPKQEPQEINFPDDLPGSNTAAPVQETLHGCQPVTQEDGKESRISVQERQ
CD40 ligand (CD40L), sequence (P29965 113-261 limits assumed): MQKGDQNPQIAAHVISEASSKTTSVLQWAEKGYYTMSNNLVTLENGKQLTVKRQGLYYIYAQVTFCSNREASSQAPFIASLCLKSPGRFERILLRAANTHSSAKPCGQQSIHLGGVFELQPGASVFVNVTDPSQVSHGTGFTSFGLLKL
TNFα, sequence (P01375 77-233 limits assumed): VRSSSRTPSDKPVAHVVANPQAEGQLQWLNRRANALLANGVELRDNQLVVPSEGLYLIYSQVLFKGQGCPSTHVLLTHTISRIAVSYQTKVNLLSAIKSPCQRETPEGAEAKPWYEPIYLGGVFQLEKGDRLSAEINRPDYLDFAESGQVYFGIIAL
IL-6, sequence (P05231 30-212 limits assumed): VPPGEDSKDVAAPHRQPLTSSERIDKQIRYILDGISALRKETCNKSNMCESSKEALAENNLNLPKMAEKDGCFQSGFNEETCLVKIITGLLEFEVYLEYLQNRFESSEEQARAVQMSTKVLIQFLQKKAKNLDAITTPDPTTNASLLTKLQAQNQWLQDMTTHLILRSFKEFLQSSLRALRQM

As to anti-CD3 antibody [OKT3], in experiment [1], the EC50 for control agonist stimulation, Jurkat NFAT pathway reporter cell line (Example 8, plate-coated antibody) is 0.302 µg/mL and the signal:background ratio at agonist EMAX, Jurkat NFAT pathway reporter cell line (Example 8) was 7.6.
As for “IL-6 (from UniProt P05231 30-212) (ligand)”, in experiment [2], the EC50 for control agonist stimulation, HepG2 STAT3 pathway reporter cell line came to 0.000601 µg/mL and the signal:background ratio at agonist EMAX, HepG2 STAT3 pathway reporter cell line amounted to 21.3.
As for “IL-6: control agonist signalling through endogenous IL-6 receptor in HepG2 cells”, in the experiment with IL-6 receptor, the “EC50 for control agonist stimulation” value was found to be 0.000601 µg/mL and the “signal:background ratio at agonist EMAX” value came out at 21.3.
Regarding `CCCCCCCCCCCCCC(=O)O[C@@H]1[C@@H](C)[C@@]2(O)[C@@H](C=C(CO)C[C@]3(O)C(=O)C(C)=C[C@@H]23)[C@@H]2C(C)(C)[C@]12OC(C)=O` [PMA, phorbol 12-myristate 13-acetate], the “activation of elements in the IL2-promoter EFC reporter construct” value with IL2 promoter is reported as “increase the activation”. The EC50 in the experiment with NFAT signaling pathways came out at 3.8 nM.
With `C[C@H](CCC(=O)O)C[C@H](C)C[C@H](C)C(=O)/C=C(\O)[C@H](C)C[C@H](C)C/C=C/[C@@H](C)[C@@H](O)[C@@H](C)[C@@H](O)C[C@@H]1CC[C@@](C)([C@H]2CC[C@@](C)([C@@H](C)O)O2)O1` [ionomycin], in the experiment with IL2 promoter, the “activation of elements in the IL2-promoter EFC reporter construct” value is “increase the activation”. Also, in the experiment on NFAT signaling pathways (Homo sapiens, U2OS), the EC50 was determined as 63 nM.
Take “CD40 ligand (CD40L) (from UniProt P29965 113-261)”: in experiment [3], the EC50 for control agonist stimulation, U2OS NF-κB pathway reporter cell line (Example 12) was 0.0886 µg/mL; the EC50 for control agonist stimulation, U2OS NFκB pathway reporter cell line (Example 7) amounted to 0.225 µg/mL; the signal:background ratio at agonist EMAX, U2OS NFκB pathway reporter cell line (Example 7) was found to be 26.3; the signal:background ratio, U2OS NF-κB pathway reporter cell line (Example 12) came out at 103.
With adalimumab, the “inhibition of TNFα-stimulated NF-κB signaling” value on TNFα (2 nM TNFα (agonist)) is “can inhibit”. For the same compound, the “change of inhibitory potency after forced degradation” value on TNFα (samples subjected to forced degradation for 0, 15 or 30 min at 70° C.) was “graded loss of potency (right shift)”.
In the case of “OKT3 ligand expressed and presented on the surface of CHO-K1 cells (scFv)”, in experiment [1], the EC50 of stimulating OKT3 cells, Jurkat NFAT EFC reporter co-culture assay worked out at 700 cells.
